Experimental findings from patent US20210403601A1 (FAPON BIOTECH, published 2021) are described below.

Usually Kd stands for a measure of binding affinity in units of concentration. As a reminder, the koff is the first-order rate constant of dissociation. High values mean a short-lived complex, low ones a long-lived complex. The term kon denotes the rate constant with which the complex forms.

Residue numbers refer to the chain shown, from its start. Read-outs that look alike come from different tables or passages of the source.

Test [1] concerns the target T1, Taq DNA polymerase (Thermus aquaticus, UniProt P19821 1-832).
T1 construct: also called Taq enzyme; Taq DNA enzyme
Description: AMC sensor, antibody immobilised.

The target of test [2] is T1, Taq DNA polymerase. In words: AMC sensor, antibody immobilised. This is another data set of the same source.

T1 sequence (P19821 whole entry): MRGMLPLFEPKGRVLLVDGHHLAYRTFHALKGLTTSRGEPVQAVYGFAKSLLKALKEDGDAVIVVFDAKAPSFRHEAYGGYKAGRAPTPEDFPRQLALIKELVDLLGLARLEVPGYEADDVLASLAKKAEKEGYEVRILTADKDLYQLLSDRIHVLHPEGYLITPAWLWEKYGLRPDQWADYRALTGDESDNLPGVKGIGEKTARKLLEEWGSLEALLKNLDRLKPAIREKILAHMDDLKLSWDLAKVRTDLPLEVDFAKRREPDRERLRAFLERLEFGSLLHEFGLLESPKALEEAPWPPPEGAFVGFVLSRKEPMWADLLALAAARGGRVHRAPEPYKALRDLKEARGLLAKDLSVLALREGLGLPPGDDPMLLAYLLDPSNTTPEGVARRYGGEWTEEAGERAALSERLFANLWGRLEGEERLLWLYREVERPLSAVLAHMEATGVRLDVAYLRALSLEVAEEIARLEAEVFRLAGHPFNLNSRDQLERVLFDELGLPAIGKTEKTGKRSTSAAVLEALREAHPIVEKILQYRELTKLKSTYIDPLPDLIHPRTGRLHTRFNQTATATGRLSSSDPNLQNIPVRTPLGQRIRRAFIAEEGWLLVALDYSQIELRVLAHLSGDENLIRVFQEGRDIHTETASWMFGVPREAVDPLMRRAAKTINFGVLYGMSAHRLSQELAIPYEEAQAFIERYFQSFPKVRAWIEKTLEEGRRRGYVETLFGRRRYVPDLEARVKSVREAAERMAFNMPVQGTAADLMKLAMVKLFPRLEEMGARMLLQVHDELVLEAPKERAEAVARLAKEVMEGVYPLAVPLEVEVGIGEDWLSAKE

B1: WT 1-1 (antibody, V domains shown)
VH: QVQLQQPGAELVKPGASVRLSCQTSVDTFTTYYLYWVKQRPGEGLEWIGGINPTSNPVFDEKFKSKATLTVDTSSSTAYMQLSSLTSVDSAVYYCTRSIVRRGYYPDYWGQGTALTVSS
VL: DIQMTQTTSSLSASLGDRVTISCRGSQDINNYVNWYQQKPDGTIKLLIYFTSRLQSGVPSRFSGSGSGTDYSLTIANLEQEDIATYFCQQDDTIPITWGAGTKVELKR
notes: WT background; CDRs built
As for B1, in the test with Taq DNA polymerase [1], the Kd was 4.65 nM, the koff was 0.000273 s⁻¹ and the kon was found to be 58800 M⁻¹ s⁻¹.

B2: Mutation 1-56 (antibody, V domains shown)
VH: QVQLQQPGAELVKPGASVRLSCQTSVDTFTTYYIYWVKQRPGEGLEWIGGINPTSGGPVFNEKFKSKATLTVDTSSSTAYMQLSSLTSVDSAVYYCTRSIIRRGYYFDYWGQGTALTVSS
VL: B1 VL with G25A, N30Q, V33L, F50Y, Q55N, V58L, I96L, W98F
notes: Mutation 1 background; CDRs built
B2: in the test with Taq DNA polymerase [2], binding was characterised by a dissociation constant (Kd) of 0.914 nM, the koff is 3.79e-05 s⁻¹ and the kon stood at 41500 M⁻¹ s⁻¹.

B3: Mutation 1-51 (antibody, V domains shown)
VH: B2 VH with D27N, I100L, I101L
VL: B1 VL with G25A, V33L, F50Y, Q55H, I94L, I96L, W98F
notes: as for B2
B3: in the test with Taq DNA polymerase [2], binding was put at a Kd of 0.384 nM, the koff was 3.77e-05 s⁻¹ and the kon turned out to be 98300 M⁻¹ s⁻¹.

B4: Mutation 1-7 (antibody, V domains shown)
VH: B1 VH with L34I, D60N, I99L, P106F
VL: B1 VL with G25A, F50Y, Q55N, I94L, W98F
notes: as for B2
In the test with Taq DNA polymerase [2], B4 returned an equilibrium dissociation constant (Kd) of 0.599 nM, a koff of 2.45e-05 s⁻¹ and a kon of 41000 M⁻¹ s⁻¹.

B5: Mutation 1-44 (antibody, V domains shown)
VH: B2 VH with D27N, T30S, I51V, I100L
VL: B1 VL with G25A, N30Q, V33L, F50Y, Q55N, V58L, I94L, I96V, W98F
notes: as for B2
Consider B5, for which, in the test with Taq DNA polymerase [2], the Kd came to 0.0133 nM, the koff was 4.9e-06 s⁻¹ and the kon was found to be 369000 M⁻¹ s⁻¹.

B6: Mutation 1-45 (antibody, V domains shown)
VH: B2 VH with D27N, I101L
VL: B1 VL with G25A, V33L, F50Y, Q55N, I96L, W98F
notes: as for B2
In the test with Taq DNA polymerase [2], B6 showed a Kd of 0.0582 nM, a koff of 3.07e-06 s⁻¹ and a kon of 52600 M⁻¹ s⁻¹.

B7: WT 1-4 (antibody, V domains shown)
VH: B2 VH with D27N, T30S, I34L, N61D, I100V, I101V, F107P
VL: B1 VL with N30Q, V33I, Q55H, I94V
notes: WT background; CDRs built
In the test with Taq DNA polymerase [1], B7 showed a Kd of 4.1 nM, a koff of 0.000362 s⁻¹ and a kon of 88400 M⁻¹ s⁻¹.

B8: Mutation 1-14 (antibody, V domains shown)
VH: B1 VH with D27E, T30S, L34I, I51L, D60N, I99V, V100I, P106F
VL: B1 VL with G25A, N30Q, V33L, F50Y, Q55H, V58L, I94V, I96L, W98F
notes: as for B2
In the test with Taq DNA polymerase [2], B8 gave a Kd of 0.229 nM, a koff of 1.92e-05 s⁻¹ and a kon of 84100 M⁻¹ s⁻¹.

B9: Mutation 1-59 (antibody, V domains shown)
VH: B1 VH with D27N, T30S, L34I, I51L, D60N, I99V, V100I, P106F
VL: B1 VL with G25A, V33I, F50Y, V58L, I94V, I96L, W98F
notes: as for B2
Take B9: in the test with Taq DNA polymerase [2], binding was characterised by a dissociation constant (Kd) of 0.0507 nM, the dissociation rate constant (koff) was 3.06e-06 s⁻¹ and the kon stood at 60400 M⁻¹ s⁻¹.

B10: Mutation 1-11 (antibody, V domains shown)
VH: B2 VH with D27N, I51L
VL: B1 VL with G25A, V33I, F50Y, V58L, I96L, W98F
notes: as for B2
In the test with Taq DNA polymerase [2], B10 returned a Kd of 0.613 nM, a koff of 3.06e-05 s⁻¹ and a kon of 50000 M⁻¹ s⁻¹.

B11: Mutation 1-55 (antibody, V domains shown)
VH: B2 VH with T30S, I51V, I101V
VL: B1 VL with G25A, F50Y, Q55N, V58I, W98F
notes: as for B2
In the test with Taq DNA polymerase [2], B11 had a Kd of 0.173 nM, a koff of 1.12e-05 s⁻¹ and a kon of 64400 M⁻¹ s⁻¹.

B12: Mutation 1-41 (antibody, V domains shown)
VH: B1 VH with L34I, I51V, D60N, I99V, V100I, P106F
VL: B1 VL with G25A, V33I, F50Y, Q55N, I94V, I96V, W98F
notes: as for B2
In the test with Taq DNA polymerase [2], B12 had a Kd of 0.297 nM, an off-rate (koff) of 9.82e-06 s⁻¹ and a kon of 33100 M⁻¹ s⁻¹.

B13: Mutation 1-58 (antibody, V domains shown)
VH: B1 VH with D27E, L34I, D60N, I99V, P106F
VL: B1 VL with G25A, N30Q, V33I, F50Y, V58I, I94V, W98F
notes: as for B2
On to B13, for which, in the test with Taq DNA polymerase [2], the equilibrium dissociation constant (Kd) is 0.178 nM, the koff is 1.34e-05 s⁻¹ and the kon is 75000 M⁻¹ s⁻¹.

B14: Mutation 1-15 (antibody, V domains shown)
VH: B2 VH with D27E, I51V, I100L, I101L
VL: B1 VL with G25A, V33L, F50Y, Q55N, V58I, I94L, I96V, W98F
notes: as for B2
For the molecule B14, in the test with Taq DNA polymerase [2], the Kd is 0.12 nM, the koff was determined as 5.72e-06 s⁻¹ and the kon was determined as 47600 M⁻¹ s⁻¹.

B15: Mutation 1-49 (antibody, V domains shown)
VH: B1 VH with D27E, L34I, I51L, D60N, I99V, P106F
VL: B1 VL with G25A, F50Y, V58I, I94V, W98F
notes: as for B2
In the test with Taq DNA polymerase [2], B15 had a Kd of 0.198 nM, a koff of 1.71e-05 s⁻¹ and a kon of 86100 M⁻¹ s⁻¹.

B16: Mutation 1-9 (antibody, V domains shown)
VH: B2 VH with D27E, I51V, I101L
VL: B1 VL with G25A, V33L, F50Y, V58I, I96V, W98F
notes: as for B2
As for B16, in the test with Taq DNA polymerase [2], binding was characterised by a dissociation constant (Kd) of 0.926 nM, the koff came out at 7.28e-05 s⁻¹ and the kon worked out at 78600 M⁻¹ s⁻¹.

B17: Mutation 1-53 (antibody, V domains shown)
VH: B1 VH with D27N, T30S, L34I, D60N, I99L, V100I, P106F
VL: B1 VL with G25A, V33I, F50Y, Q55H, V58L, I94L, I96V, W98F
notes: as for B2
With B17, in the test with Taq DNA polymerase [2], the Kd amounted to 0.384 nM, the koff is 3.8e-05 s⁻¹ and the kon was found to be 99000 M⁻¹ s⁻¹.

B18: Mutation 1-3 (antibody, V domains shown)
VH: B2 VH with D27E, I51V, I100V, I101L
VL: B1 VL with G25A, V33L, F50Y, Q55H, V58I, I94V, I96V, W98F
notes: as for B2
For the molecule B18, in the test with Taq DNA polymerase [2], the Kd came to 0.367 nM, the dissociation rate constant (koff) was found to be 1.54e-05 s⁻¹ and the kon turned out to be 42000 M⁻¹ s⁻¹.

B19: Mutation 1-13 (antibody, V domains shown)
VH: B1 VH with L34I, D60N, I99V, P106F
VL: B1 VL with G25A, F50Y, Q55H, I94V, W98F
notes: as for B2
In the test with Taq DNA polymerase [2], B19 displayed a Kd of 0.407 nM, a koff of 2.52e-05 s⁻¹ and a kon of 61700 M⁻¹ s⁻¹.

B20: Mutation 1-43 (antibody, V domains shown)
VH: B1 VH with D27E, L34I, I51L, D60N, I99L, P106F
VL: B1 VL with G25A, F50Y, Q55H, V58L, I94L, W98F
notes: as for B2
In the test with Taq DNA polymerase [2], B20 gave a Kd of 0.971 nM, a koff of 6.92e-05 s⁻¹ and a kon of 71200 M⁻¹ s⁻¹.

B21: Mutation 1-8 (antibody, V domains shown)
VH: B1 VH with D27E, T30S, L34I, I51L, D60N, I99L, V100I, P106F
VL: B1 VL with G25A, N30Q, V33L, F50Y, Q55N, V58L, I94L, I96L, W98F
notes: as for B2
In the test with Taq DNA polymerase [2], B21 yielded a Kd of 0.0343 nM, a koff of 1.64e-06 s⁻¹ and a kon of 47600 M⁻¹ s⁻¹.

B22: WT 1-2 (antibody, V domains shown)
VH: B1 VH with D27E, T30S, I51L, V100I
VL: B1 VL with N30Q, V33L, V58L, I96L
notes: WT background; CDRs built
In the case of B22, in the test with Taq DNA polymerase [1], the Kd came out at 3.41 nM, the koff came to 0.000166 s⁻¹ and the kon is 48500 M⁻¹ s⁻¹.

B23: WT 1-3 (antibody, V domains shown)
VH: B2 VH with D27E, I34L, I51V, N61D, I100V, I101L, F107P
VL: B1 VL with V33L, Q55H, V58I, I94V, I96V
notes: WT background; CDRs built
In the test with Taq DNA polymerase [1], B23 showed a dissociation constant (Kd) of 2.3 nM, a koff of 0.00011 s⁻¹ and a kon of 48000 M⁻¹ s⁻¹.

B24: WT 1-8 (antibody, V domains shown)
VH: B1 VH with D27E, T30S, I51L, I99L, V100I
VL: B1 VL with N30Q, V33L, Q55N, V58L, I94L, I96L
notes: WT background; CDRs built
As to B24, in the test with Taq DNA polymerase [1], binding was put at a Kd of 3.02 nM, the koff came out at 9.85e-05 s⁻¹ and the on-rate (kon) amounted to 32600 M⁻¹ s⁻¹.

B25: WT 1-5 (antibody, V domains shown)
VH: B2 VH with D27N, I34L, I51L, N61D, I100V, F107P
VL: B1 VL with V33I, Q55H, V58L, I94V, I96L
notes: WT background; CDRs built
In the test with Taq DNA polymerase [1], B25 came in with a Kd of 5.13 nM, a koff of 0.000314 s⁻¹ and a kon of 61200 M⁻¹ s⁻¹.

B26: WT 1-6 (antibody, V domains shown)
VH: B1 VH with T30S, I51V, I99L, V100L
VL: B1 VL with N30Q, Q55N, V58I, I94L, I96V
notes: WT background; CDRs built
For B26, in the test with Taq DNA polymerase [1], the Kd came to 6.65 nM, the koff was determined as 0.000506 s⁻¹ and the kon came out at 76100 M⁻¹ s⁻¹.

B27: WT 1-7 (antibody, V domains shown)
VH: B1 VH with I99L
VL: B1 VL with Q55N, I94L
notes: WT background; CDRs built
As to B27, in the test with Taq DNA polymerase [1], binding was characterised by a dissociation constant (Kd) of 3.42 nM, the koff is 0.000296 s⁻¹ and the kon was found to be 86700 M⁻¹ s⁻¹.
